What was measured:
Type in all cases: cell-based, human
[1] = test system: IL-1β induced expression of MMP13 in SW1353 cells; assay: MMP13 protein in supernatants by ELISA after overexpression of PAK1-ID in SW1353 cells; conditions: SW1353 cells transfected with pCEP4_PAK1-ID vs void vector, ELISA of supernatant
Procedure: The PAK1 inhibitory domain was subcloned into the pCEP4 vector and transfected into SW1353 cells. Where indicated, IL-1β was used as a stimulus at a concentration of 10 ng/ml for 24 h. Supernatants were collected and the amount of MMP13 protein was determined by ELISA. Values are shown in arbitrary units and represent at least 3 independent results ±SD. The chequered column represents the experiments with the vector pCEP4 (void vector) and the black column represents the experiments with the vector pCEP4_PAK1-ID.
(§1) (Kozak sequence is underlined, hemagglutinin (HA) tag is in bold) and 5′-[…]-3′(SEQ ID NO: 12) (MWG, Biotech AG, Germany). […]
(§2) Cultures of human SW1353 chondrosarcoma were grown in Dulbecco's modified Eagles's medium (DMEM) containing 10% fetal calf serum (FCS) and penicillin/streptomycin (37° C., 5% CO2). […] The transfection efficiency was examined with a FACScan (Becton Dickinson Immunocytometry Systems, Inc., Mountain View, Calif., U.S.A.) and on an inverted fluorescence microscope. […]
(§3) Human embryonic kidney (HEK) 293 were maintained in Dulbecco's modified Eagle's medium supplemented with 10% fetal calf serum. […] Culture supernatant were removed and expression of IL-8 (R&D Systems, Inc., Minneapolis, Minn., U.S.A.), PGE2 (SpiBiom Inc.), and MMP-13 (Amersham Pharmacia Biotech, Inc.) was monitored by ELISA according to the procedure supplied by the manufacturer. […]

[2] = test system: IL-1β induced expression of IL-8 in HEK293 cells; assay: IL-8 protein in supernatants by ELISA after transient transfection of PAK1-ID in HEK293 cells; conditions: HEK293 cells transiently transfected with pCDNA3.1_PAK1-ID vs void vector; IL-1β 10 ng/ml, time course; ELISA of supernatant
Procedure: The PAK1 inhibitory domain subcloned into the pCDNA3.1 vector was transiently transfected into HEK293 cells. Cells were stimulated with IL-1β at a concentration of 10 ng/ml for the indicated time periods. Supernatants were collected and the amount of IL-8 protein was determined by ELISA. Values in arbitrary units represent the mean of two experiments. The circles represents the experiments with the vector pCDNA3.1_PAK1-ID plus IL-1β and the squares represent the experiments with the vector pCDNA3.1 (void vector) plus IL-1β.
as §1
Human embryonic kidney (HEK) 293 were maintained in Dulbecco's modified Eagle's medium supplemented with 10% fetal calf serum. […] Culture supernatant were removed and expression of IL-8 (R&D Systems, Inc., Minneapolis, Minn., U.S.A.), PGE2 (SpiBiom Inc.), and MMP-13 (Amersham Pharmacia Biotech, Inc.) was monitored by ELISA according to the procedure supplied by the manufacturer.
For the analysis of MMP13, IL-8 and PGE2 protein levels, supernatants of cell cultures were determined by ELISA for MMP13 (Amersham Pharmacia Biotech, Inc.), IL-8 (R&D Systems, Inc. Minneapolis, Minn., U.S.A.) and PGE2 (SpiBio) as described by the supplier. […]

[3] = test system: IL-1β induced expression of PGE2 in SW1353 cells; assay: PGE2 in supernatants by ELISA after overexpression of PAK1-ID in SW1353 cells; conditions: SW1353 cells transfected with pCEP4_PAK1-ID vs void vector; IL-1β and TNFα both 10 ng/ml for 24 h; ELISA of supernatant
Procedure: The PAK1 inhibitory domain was subcloned into the pCEP4 vector and transfected into SW1353 cells. Cells were stimulated with a combination of IL-1β and TNFα both at a concentration of 10 ng/ml for 24 h. Supernatants were collected and the amount of MMP13 protein was determined by ELISA. Values in arbitrary units represent the mean of two experiments. The punctured column represents the experiments with no vector plus IL1β and TNFα. The chequered column represents the experiments with the vector pCEP4 (void vector) plus IL1β and TNFα. The black column represents the experiments with the vector pCEP4_PAK1-ID plus IL1β and TNFα. […]
as §2, §3

B1: PAK1-ID: Autoinhibitory domain of PAK1, residues 83 to 149 (SEQ ID NO: 6), HA-tagged, overexpressed from pCEP4 or pcDNA3.1 vector in cells (protein, listed as Homo sapiens)
chain: HTIHVGFDAVTGEFTGMPEQWARLLQTSNITKSEQKKNPQAVLDVLEFYNSKKTSNSQKYMSFTDKS
modifications: HA tag
inhibition of the IL-1β-induced expression of MMP13 ([1]; IL-1β 10 ng/ml for 24 h): ~55%
inhibition of basal MMP13 secretion in non-stimulated cells ([1]; non-stimulated (no IL-1β)): > 80%
effect on IL-1β induced expression of IL-8 [2]: represses the IL-1β induced expression of IL-8
inhibition of IL-1β induced expression of PGE2 [3]: more than 50%
